From patent US8258099B2, “Pin1-modulating compounds and methods of use thereof” (Max-Planck-Gesellschaft zur Foerderung der Wissenschaften …, priority 2004, dated 2012)
Square brackets hold non-standard residues; d marks the D form. * marks the point of attachment. Biotin = O=C1N[C@H]2[C@H](CS[C@H]2CCCCC(=O)*)N1; Phe(4-tBu) = CC(C)(C)c1ccc(C[C@H](N)C(=O)O)cc1; Bip = N[C@@H](Cc1ccc(-c2ccccc2)cc1)C(=O)O; pT = C[C@@H](OP(=O)(O)O)[C@H](N)C(=O)O; 2Nal = N[C@@H](Cc1ccc2ccccc2c1)C(=O)O; Bta = N[C@@H](Cc1csc2ccccc12)C(=O)O; Tic = O=C(O)[C@@H]1Cc2ccccc2CN1; 2Thi = N[C@@H](Cc1cccs1)C(=O)O; Cha = N[C@@H](CC1CCCCC1)C(=O)O; Tle = CC(C)(C)[C@H](N)C(=O)O; NMeA = CN[C@@H](C)C(=O)O

B1: peptide 14 (peptide)
peptide: Ac-K(Biotin)AA[Cha][pT][Tic][2Nal]Q-NH2
SMILES: CC(=O)N[C@@H](CCCCNC(=O)CCCC[C@@H]1SC[C@@H]2NC(=O)N[C@@H]21)C(=O)N[C@@H](C)C(=O)N[C@@H](C)C(=O)N[C@@H](CC1CCCCC1)C(=O)N[C@H](C(=O)N1Cc2ccccc2C[C@H]1C(=O)N[C@@H](Cc1ccc2ccccc2c1)C(=O)N[C@@H](CCC(N)=O)C(N)=O)[C@@H](C)OP(=O)(O)O
B2: peptide 10 (peptide)
peptide: Ac-K(Biotin)AA[2Thi][pT][NMeA][2Nal]Q-NH2
SMILES: CC(=O)N[C@@H](CCCCNC(=O)CCCC[C@@H]1SC[C@@H]2NC(=O)N[C@@H]21)C(=O)N[C@@H](C)C(=O)N[C@@H](C)C(=O)N[C@@H](Cc1cccs1)C(=O)N[C@H](C(=O)N(C)[C@@H](C)C(=O)N[C@@H](Cc1ccc2ccccc2c1)C(=O)N[C@@H](CCC(N)=O)C(N)=O)[C@@H](C)OP(=O)(O)O
B3: peptide 1 (peptide)
peptide: Ac-K(Biotin)AA[Phe(4-tBu)][pT]P[2Nal]Q-NH2
SMILES: CC(=O)N[C@@H](CCCCNC(=O)CCCC[C@@H]1SC[C@@H]2NC(=O)N[C@@H]21)C(=O)N[C@@H](C)C(=O)N[C@@H](C)C(=O)N[C@@H](Cc1ccc(C(C)(C)C)cc1)C(=O)N[C@H](C(=O)N1CCC[C@H]1C(=O)N[C@@H](Cc1ccc2ccccc2c1)C(=O)N[C@@H](CCC(N)=O)C(N)=O)[C@@H](C)OP(=O)(O)O
B4: peptide 13 (peptide)
peptide: Ac-K(Biotin)AA[Phe(4-tBu)][pT][Tic][Bta]Q-NH2
SMILES: CC(=O)N[C@@H](CCCCNC(=O)CCCC[C@@H]1SC[C@@H]2NC(=O)N[C@@H]21)C(=O)N[C@@H](C)C(=O)N[C@@H](C)C(=O)N[C@@H](Cc1ccc(C(C)(C)C)cc1)C(=O)N[C@H](C(=O)N1Cc2ccccc2C[C@H]1C(=O)N[C@@H](Cc1csc2ccccc12)C(=O)N[C@@H](CCC(N)=O)C(N)=O)[C@@H](C)OP(=O)(O)O
B5: peptide 12 (peptide)
peptide: Ac-K(Biotin)AAF[pT][NMeA][Bta]Q-NH2
SMILES: CC(=O)N[C@@H](CCCCNC(=O)CCCC[C@@H]1SC[C@@H]2NC(=O)N[C@@H]21)C(=O)N[C@@H](C)C(=O)N[C@@H](C)C(=O)N[C@@H](Cc1ccccc1)C(=O)N[C@H](C(=O)N(C)[C@@H](C)C(=O)N[C@@H](Cc1csc2ccccc12)C(=O)N[C@@H](CCC(N)=O)C(N)=O)[C@@H](C)OP(=O)(O)O

molecular target: full-length hPin1 (human, UniProt Q13526 1-163); test: cell-based or functional assay
Sequence (Q13526 whole entry): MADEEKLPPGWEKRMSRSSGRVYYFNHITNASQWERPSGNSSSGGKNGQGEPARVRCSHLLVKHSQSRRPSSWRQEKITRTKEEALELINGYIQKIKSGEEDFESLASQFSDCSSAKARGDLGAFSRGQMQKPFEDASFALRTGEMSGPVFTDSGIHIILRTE

Row | Binder | IC50(µM), blockade of the PPIase activity of hPin1, protease free PPIase assay
1 | B1 | 25 µM
2 | Ac-K(Biotin)AA[Bta][pT]P[Cha]Q-NH2 [peptide 3] | > 50 µM
3 | Ac-K(Biotin)AA[Bip][pT]P[2Nal]Q-NH2 [peptide 6] | 18 µM
4 | B2 | 15 µM
5 | Ac-K(Biotin)AA[Bip][pT]P[Bta]Q-NH2 [peptide 5] | 15 µM
6 | Ac-K(Biotin)AA[Cha][pT][NMeA][2Nal]Q-NH2 [peptide 11] | 7 µM
7 | B3 | 30 µM
8 | Ac-K(Biotin)AA[2Nal][pT]P[Tle]Q-NH2 [peptide 7] | > 50 µM
9 | Ac-K(Biotin)AA[2Thi][pT]P[Bip]Q-NH2 [peptide 2] | 22 µM
10 | B4 | 8 µM
11 | B5 | 20 µM
